Test results as given in the supplement of paper PMC5998384.

Columns and labels:
HeLa Kyoto [1] = assay: solubility in G1/S (NP-40 vs SDS abundance) (log2 ratio); higher = more soluble; conditions: cell cycle stage: G1/S
HeLa Kyoto [2] = assay: melting temperature (median over replicates), in situ; higher = more thermally stable
HeLa Kyoto [3] = assay: thermal stability score vs G1/S (z-score of summed log2 fold changes over temperatures); higher = more thermally stable than in G1/S
HeLa Kyoto [4] = assay: solubility change mitosis vs G1/S (difference of NP-40 vs SDS log2 ratios) (log2 ratio difference); higher = more soluble in mitosis
[5] = cell cycle stage: early G1 (4.5 h after nocodazole release)
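Throughout, for melting temperature (median over replicates), in situ: HeLa Kyoto cells synchronized by double thymidine or nocodazole block, proteins quantified by TMT10plex mass spectrometry, three independent biological replicates.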
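Throughout, for solubility change mitosis vs G1/S (difference of NP-40 vs SDS log2 ratios): synchronized HeLa Kyoto cells (double thymidine block for G1/S, nocodazole release for mitosis), protein amounts in NP-40 versus SDS lysates quantified by mass spectrometry, three biological replicates.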
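Throughout, for solubility in G1/S (NP-40 vs SDS abundance): HeLa Kyoto cells arrested at G1/S by double thymidine block, proteins quantified by TMT10plex mass spectrometry in mild NP-40 versus SDS extracts, three biological replicates.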
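Throughout, for thermal stability score vs G1/S (z-score of summed log2 fold changes over temperatures): synchronized HeLa Kyoto cells, proteins quantified by TMT10plex mass spectrometry, three biological replicates, mitosis taken 0.5 h after nocodazole release, G1/S directly after double thymidine block.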

Chain of PNN (chain, as listed by the source): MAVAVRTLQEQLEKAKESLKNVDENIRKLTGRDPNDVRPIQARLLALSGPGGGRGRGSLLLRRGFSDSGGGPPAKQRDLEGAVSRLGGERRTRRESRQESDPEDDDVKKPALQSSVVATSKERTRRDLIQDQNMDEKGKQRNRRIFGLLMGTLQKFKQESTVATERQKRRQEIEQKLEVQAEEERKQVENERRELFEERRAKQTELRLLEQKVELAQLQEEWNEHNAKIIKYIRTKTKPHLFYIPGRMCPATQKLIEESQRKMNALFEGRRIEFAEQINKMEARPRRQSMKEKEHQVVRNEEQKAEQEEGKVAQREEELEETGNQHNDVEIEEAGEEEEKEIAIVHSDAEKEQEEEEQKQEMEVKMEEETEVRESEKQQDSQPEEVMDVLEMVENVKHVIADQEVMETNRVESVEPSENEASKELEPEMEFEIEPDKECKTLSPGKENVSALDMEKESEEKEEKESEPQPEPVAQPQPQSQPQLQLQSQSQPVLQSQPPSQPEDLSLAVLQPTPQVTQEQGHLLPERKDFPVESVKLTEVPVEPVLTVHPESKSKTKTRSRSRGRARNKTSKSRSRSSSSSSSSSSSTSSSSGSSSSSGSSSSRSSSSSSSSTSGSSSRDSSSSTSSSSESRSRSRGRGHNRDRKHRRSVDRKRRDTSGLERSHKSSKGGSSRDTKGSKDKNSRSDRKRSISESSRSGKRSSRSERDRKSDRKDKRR

“MLTKFETKSARVKGLSFHPKRPWILTSLHNGVIQLWDYRMCTLIDKFDEHDGPVRGIDFHKQQPLFVSGGDDYKIKVWNYKLRRCLFTLLGHLDYIRTTFFHHEYPWILSASDDQTIRVWNWQSRTCVCVLTGHNHYVMCAQFHPTEDLVVSASLDQTVRVWDISGLRKKNLSPGAVESDVRGITGVDLFGTTDAVVKHVLEGHDRGVNWAAFHPTMPLIVSGADDRQVKIWRMNESKAWEVDTCRGHYNNVSCAVFHPRQELILSNSEDKSIRVWDMSKRTGVQTFRRDHDRFWVLAAHPNLNLFAAGHDGGMIVFKLERERPAYAVHGNMLHYVKDRFLRQLDFNSSKDVAVMQLRSGSKFPVFNMSYNPAENAVLLCTRASNLENSTYDLYTIPKDADSQNPDAPEGKRSSGLTAVWVARNRFAVLDRMHSLLIKNLKNEITKKVQVPNCDEIFYAGTGNLLLRDADSITLFDVQQKRTLASVKISKVKYVIWSADMSHVALLAKHAIVICNRKLDALCNIHENIRVKSGAWDESGVFIYTTSNHIKYAVTTGDHGIIRTLDLPIYVTRVKGNNVYCLDRECRPRVLTIDPTEFKFKLALINRKYDEVLHMVRNAKLVGQSIIAYLQKKGYPEVALHFVKDEKTRFSLALECGNIEIALEAAKALDDKNCWEKLGEVALLQGNHQIVEMCYQRTKNFDKLSFLYLITGNLEKLRKMMKIAEIRKDMSGHYQNALYLGDVSERVRILKNCGQKSLAYLTAATHGLDEEAESLKETFDPEKETIPDIDPNAKLLQPPAPIMPLDTNWPLLTVSKGFFEGTIASKGKGGALAADIDIDTVGTEGWGEDAELQLDEDGFVEATEGLGDDALGKGQEEGGGWDVEEDLELPPELDISPGAAGGAEDGFFVPPTKGTSPTQIWCNNSQLPVDHILAGSFETAMRLLHDQVGVIQFGPYKQLFLQTYARGRTTYQALPCLPSMYGYPNRNWKDAGLKNGVPAVGLKLNDLIQRLQLCYQLTTVGKFEEAVEKFRSILLSVPLLVVDNKQEIAEAQQLITICREYIVGLSVETERKKLPKETLEQQKRICEMAAYFTHSNLQPVHMILVLRTALNLFFKLKNFKTAATFARRLLELGPKPEVAQQTRKILSACEKNPTDAYQLNYDMHNPFDICAASYRPIYRGKPVEKCPLSGACYSPEFKGQICRVTTVTEIGKDVIGLRISPLQFR [COPA]” was tested, and the “solubility in G1/S (log2)” value (HeLa Kyoto [1]) was -0.365, the melting temperature (HeLa Kyoto [2]; cell cycle stage: G1/S) was 51 °C and the melting temperature (HeLa Kyoto [2]; cell cycle stage: mitosis) was 50.3 °C. The thermal stability score (HeLa Kyoto [3]; [5]) was -0.819, the thermal stability score (HeLa Kyoto [3]; cell cycle stage: mitosis) was -0.346 and the “solubility change mitosis (log2)” value (HeLa Kyoto [4]) was -0.16.
PNN was tested, and the “solubility in G1/S (log2)” value (HeLa Kyoto [1]) was -1.25, the melting temperature (HeLa Kyoto [2]; cell cycle stage: G1/S) was 48.6 °C and the melting temperature (HeLa Kyoto [2]; cell cycle stage: mitosis) was 50 °C. The thermal stability score (HeLa Kyoto [3]; [5]) was 0.124, the thermal stability score (HeLa Kyoto [3]; cell cycle stage: mitosis) was 3.19 and the “solubility change mitosis (log2)” value (HeLa Kyoto [4]) was 0.808.
With “MTERRRDELSEEINNLREKVMKQSEENNNLQSQVQKLTEENTTLREQVEPTPEDEDDDIELRGAAAAAAPPPPIEEECPEDLPEKFDGNPDMLAPFMAQCQIFMEKSTRDFSVDRVRVCFVTSMMTGRAARWASAKLERSHYLMHNYPAFMMEMKHVFEDPQRREVAKRKIRRLRQGMGSVIDYSNAFQMIAQDLDWNEPALIDQYHEGLSDHIQEELSHLEVAKSLSALIGQCIHIERRLARAAAARKPRSPPRALVLPHIASHHQVDPTEPVGGARMRLTQEEKERRRKLNLCLYCGTGGHYADNCPAKASKSSPAGKLPGPAVEGPSATGPEIIRSPQDDASSPHLQVMLQIHLPGRHTLFVRAMIDSGASGNFIDHEYVAQNGIPLRIKDWPILVEAIDGRPIASGPVVHETHDLIVDLGDHREVLSFDVTQSPFFPVVLGVRWLSTHDPNITWSTRSIVFDSEYCRYHCRMYSPIPPSLPPPAPQPPLYYPVDGYRVYQPVRYYYVQNVYTPVDEHVYPDHRLVDPHIEMIPGAHSIPSGHVYSLSEPEMAALRDFVARNVKDGLITPTIAPNGAQVLQVKRGWKLQVSYDCRAPNNFTIQNQYPRLSIPNLEDQAHLATYTEFVPQIPGYQTYPTYAAYPTYPVGFAWYPVGRDGQGRSLYVPVMITWNPHWYRQPPVPQYPPPQPPPPPPPPPPPPSYSTL [PEG10]” the “solubility in G1/S (log2)” value (HeLa Kyoto [1]) was 0.144, the melting temperature (HeLa Kyoto [2]; cell cycle stage: G1/S) was 49.4 °C and the melting temperature (HeLa Kyoto [2]; cell cycle stage: mitosis) was 49.8 °C. The thermal stability score (HeLa Kyoto [3]; [5]) was 0.275, the thermal stability score (HeLa Kyoto [3]; cell cycle stage: mitosis) was 0.54 and the “solubility change mitosis (log2)” value (HeLa Kyoto [4]) was -0.00752.
For “MPYQYPALTPEQKKELSDIAHRIVAPGKGILAADESTGSIAKRLQSIGTENTEENRRFYRQLLLTADDRVNPCIGGVILFHETLYQKADDGRPFPQVIKSKGGVVGIKVDKGVVPLAGTNGETTTQGLDGLSERCAQYKKDGADFAKWRCVLKIGEHTPSALAIMENANVLARYASICQQNGIVPIVEPEILPDGDHDLKRCQYVTEKVLAAVYKALSDHHIYLEGTLLKPNMVTPGHACTQKFSHEEIAMATVTALRRTVPPAVTGITFLSGGQSEEEASINLNAINKCPLLKPWALTFSYGRALQASALKAWGGKKENLKAAQEEYVKRALANSLACQGKYTPSGQAGAAASESLFVSNHAY [ALDOA]”, the “solubility in G1/S (log2)” value (HeLa Kyoto [1]) was 0.345, the melting temperature (HeLa Kyoto [2]; cell cycle stage: G1/S) was 58.2 °C and the melting temperature (HeLa Kyoto [2]; cell cycle stage: mitosis) was 58.5 °C. For the same substance, the thermal stability score (HeLa Kyoto [3]; [5]) was -1.95, the thermal stability score (HeLa Kyoto [3]; cell cycle stage: mitosis) was -2.35 and the “solubility change mitosis (log2)” value (HeLa Kyoto [4]) was -0.0218.
For “MRAVLDTADIAIVALYFILVMCIGFFAMWKSNRSTVSGYFLAGRSMTWVAIGASLFVSNIGSEHFIGLAGSGAASGFAVGAWEFNALLLLQLLGWVFIPIYIRSGVYTMPEYLSKRFGGHRIQVYFAALSLILYIFTKLSVDLYSGALFIQESLGWNLYVSVILLIGMTALLTVTGGLVAVIYTDTLQALLMIIGALTLMIISIMEIGGFEEVKRRYMLASPDVTSILLTYNLSNTNSCNVSPKKEALKMLRNPTDEDVPWPGFILGQTPASVWYWCADQVIVQRVLAAKNIAHAKGSTLMAGFLKLLPMFIIVVPGMISRILFTDDIACINPEHCMLVCGSRAGCSNIAYPRLVMKLVPVGLRGLMMAVMIAALMSDLDSIFNSASTIFTLDVYKLIRKSASSRELMIVGRIFVAFMVVISIAWVPIIVEMQGGQMYLYIQEVADYLTPPVAALFLLAIFWKRCNEQGAFYGGMAGFVLGAVRLILAFAYRAPECDQPDNRPGFIKDIHYMYVATGLFWVTGLITVIVSLLTPPPTKEQIRTTTFWSKKNLVVKENCSPKEEPYKMQEKSILRCSENNETINHIIPNGKSEDSIKGLQPEDVNLLVTCREEGNPVASLGHSEAETPVDAYSNGQAALMGEKERKKETDDGGRYWKFIDWFCGFKSKSLSKRSLRDLMEEEAVCLQMLEETRQVKVILNIGLFAVCSLGIFMFVYFSL [SLC5A3]”, the “solubility in G1/S (log2)” value (HeLa Kyoto [1]) was -0.218, the melting temperature (HeLa Kyoto [2]; cell cycle stage: G1/S) was 57.3 °C and the melting temperature (HeLa Kyoto [2]; cell cycle stage: mitosis) was 55.9 °C. The thermal stability score (HeLa Kyoto [3]; [5]) was 0.7, the thermal stability score (HeLa Kyoto [3]; cell cycle stage: mitosis) was 0.41 and the “solubility change mitosis (log2)” value (HeLa Kyoto [4]) was 0.0469.
For “MASRGATRPNGPNTGNKICQFKLVLLGESAVGKSSLVLRFVKGQFHEFQESTIGAAFLTQTVCLDDTTVKFEIWDTAGQERYHSLAPMYYRGAQAAIVVYDITNEESFARAKNWVKELQRQASPNIVIALSGNKADLANKRAVDFQEAQSYADDNSLLFMETSAKTSMNVNEIFMAIAKKLPKNEPQNPGANSARGRGVDLTEPTQPTRNQCCSN [RAB5A]”, the “solubility in G1/S (log2)” value (HeLa Kyoto [1]) was 0.00572, the melting temperature (HeLa Kyoto [2]; cell cycle stage: G1/S) was 57.3 °C and the melting temperature (HeLa Kyoto [2]; cell cycle stage: mitosis) was 56.4 °C. The thermal stability score (HeLa Kyoto [3]; [5]) was -1.4, the thermal stability score (HeLa Kyoto [3]; cell cycle stage: mitosis) was -3.38 and the “solubility change mitosis (log2)” value (HeLa Kyoto [4]) was 0.0351.
For “MESSRGRPGPETDLLAVAEHQALVFGGGPGRTSSEPPAGLRVSGEEETENVGGANRHPRTSPKTSSCGVVHRPEREALENEPGPQGTLSGAGSRRGAPGAEHEPSLSSRHKNPAPPEGKPSSGRDCRRGGPGGGMDVEQQEEEDNDEEAAAGSRAGRSFSSRLQDSRSLDGLSEACGGAGSSGSAESGAGGGRRATISSPLELEGTVSRHGDLTHFVANNLQLKIRLSGAPPPPPSAPARPCPAPAPTPTPAIPPIDPEVLRDLERLSRELGGRVDRLLRGLGGAVQELTALSVGCIQTYRDAVDSLGEAVDMSIKGMYTLLARCEELERALQPVQGLARQVRDIRRTLEVLEALCK [C17ORF59]”, the “solubility in G1/S (log2)” value (HeLa Kyoto [1]) was 0.166, the melting temperature (HeLa Kyoto [2]; cell cycle stage: G1/S) was 53.5 °C and the melting temperature (HeLa Kyoto [2]; cell cycle stage: mitosis) was 53.8 °C. For the same substance, the thermal stability score (HeLa Kyoto [3]; [5]) was -2.61, the thermal stability score (HeLa Kyoto [3]; cell cycle stage: mitosis) was -1.39 and the “solubility change mitosis (log2)” value (HeLa Kyoto [4]) was -0.0139.
With “MAAAFEASGALAAVATAMPAEHVAVQVPAPEPTPGPVRILRTAQDLSSPRTRTGDVLLAEPADFESLLLSRPVLEGLRAAGFERPSPVQLKAIPLGRCGLDLIVQAKSGTGKTCVFSTIALDSLVLENLSTQILILAPTREIAVQIHSVITAIGIKMEGLECHVFIGGTPLSQDKTRLKKCHIAVGSPGRIKQLIELDYLNPGSIRLFILDEADKLLEEGSFQEQINWIYSSLPASKQMLAVSATYPEFLANALTKYMRDPTFVRLNSSDPSLIGLKQYYKVVNSYPLAHKVFEEKTQHLQELFSRIPFNQALVFSNLHSRAQHLADILSSKGFPAECISGNMNQNQRLDAMAKLKHFHCRVLISTDLTSRGIDAEKVNLVVNLDVPLDWETYMHRIGRAGRFGTLGLTVTYCCRGEEENMMMRIAQKCNINLLPLPDPIPSGLMEECVDWDVEVKAAVHTYGIASVPNQPLKKQIQKIERTLQIQKAHGDHMASSRNNSVSGLSVKSKNNTKQKLPVKSHSECGIIEKATSPKELGCDRQSEEQMKNSVQTPVENSTNSQHQVKEALPVSLPQIPCLSSFKIHQPYTLTFAELVEDYEHYIKEGLEKPVEIIRHYTGPGDQTVNPQNGFVRNKVIEQRVPVLASSSQSGDSESDSDSYSSRTSSQSKGNKSYLEGSSDNQLKDSESTPVDDRISLEQPPNGSDTPNPEKYQESPGIQMKTRLKEGASQRAKQSRRNLPRRSSFRLQTEAQEDDWYDCHREIRLSFSDTYQDYEEYWRAYYRAWQEYYAAASHSYYWNAQRHPSWMAAYHMNTIYLQEMMHSNQ [DDX20]” the “solubility in G1/S (log2)” value (HeLa Kyoto [1]) was -0.119, the melting temperature (HeLa Kyoto [2]; cell cycle stage: G1/S) was 47.5 °C and the melting temperature (HeLa Kyoto [2]; cell cycle stage: mitosis) was 48.8 °C. The thermal stability score (HeLa Kyoto [3]; [5]) was -0.14, the thermal stability score (HeLa Kyoto [3]; cell cycle stage: mitosis) was 3.36 and the “solubility change mitosis (log2)” value (HeLa Kyoto [4]) was 0.084.
